Experimental data reported in the supplement of paper PMC6755084.

B1: F1*; the commonest letter at each place (parent)
chain: GAGACCGCAACTGAAAAGTTGTTATCACTTGTCGTAAGACACTTTGGATGGGTTGAAGTTCTGCACGTAGAAGCAAAAGGC

Variants of: B1
Assay: fraction ligated after 30 min (ligated reads / total reads); higher = more ligase activity
Conditions: with F1*sub RNA substrate (template-directed ligation), 42 °C
Method in brief: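 Oligo-pool templates underwent PCR amplification, T7 transcription and gel purification to yield ribozyme variants. Gel-separated ligated and unligated bands were converted to complementary DNA with barcoded primers and sequenced on a MiSeq, keeping core bases of quality ≥20. The ratio of ligated reads to total reads gave the fraction ligated for every variant.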

Q: A37C A41G was tested. Which fraction ligated did it give?
A: 0.79

Q: For A37C A41T, which fraction ligated is on record?
A: 0.816

Q: How did the fraction ligated turn out when A37C A41C was run?
A: 0.759

Q: For A37C G38T, which fraction ligated is on record?
A: 0.844

Q: Which fraction ligated does the source give for A37C G38A here?
A: 0.836

Q: With A37C G38C as the variant, how does the fraction ligated read?
A: 0.818

Q: A37G A57T was tested. Which fraction ligated did it give?
A: 0.823

Q: With A37G A57C as the variant, how does the fraction ligated read?
A: 0.82

Q: How did the fraction ligated turn out when A37G A57G was run?
A: 0.859

Q: With A37C A57G as the variant, how does the fraction ligated read?
A: 0.838

Q: How did the fraction ligated turn out when A37C A57T was run?
A: 0.831

Q: With A37C A57C as the variant, how does the fraction ligated read?
A: 0.819

Q: How did the fraction ligated turn out when A37C C42A was run?
A: 0.849

Q: Which fraction ligated does the source give for A37C C42G here?
A: 0.833

Q: A37C C42T was tested. Which fraction ligated did it give?
A: 0.857

Q: For A36G A56G, which fraction ligated is on record?
A: 0.814

Q: For A36G A56C, which fraction ligated is on record?
A: 0.773

Q: For A36G A56T, which fraction ligated is on record?
A: 0.873

Q: With A36G A37T as the variant, how does the fraction ligated read?
A: 0.872

Q: For A36G A37G, which fraction ligated is on record?
A: 0.864

Q: With A36T as the variant, how does the fraction ligated read?
A: 0.843

Q: A36T G50C was tested. Which fraction ligated did it give?
A: 0.467

Q: How did the fraction ligated turn out when A36T G50A was run?
A: 0.642

Q: With A36T G50T as the variant, how does the fraction ligated read?
A: 0.775

Q: With A36G C40T as the variant, how does the fraction ligated read?
A: 0.861

Q: With A36G C40G as the variant, how does the fraction ligated read?
A: 0.841

Q: A36G C40A was tested. Which fraction ligated did it give?
A: 0.829

Q: Which fraction ligated does the source give for A36G T45A here?
A: 0.785

Q: For A36G T45G, which fraction ligated is on record?
A: 0.353

Q: Which fraction ligated does the source give for A36G T45C here?
A: 0.614

Q: How did the fraction ligated turn out when A36T T49G was run?
A: 0.797

Q: How did the fraction ligated turn out when A36T T49C was run?
A: 0.742

Q: For A36T T49A, which fraction ligated is on record?
A: 0.797

Q: Which fraction ligated does the source give for A36T G38T here?
A: 0.834

Q: With A36T G38C as the variant, how does the fraction ligated read?
A: 0.833

Q: For A36T G38A, which fraction ligated is on record?
A: 0.849

Q: How did the fraction ligated turn out when A36T A56G was run?
A: 0.795

Q: A36T A56T was tested. Which fraction ligated did it give?
A: 0.823

Q: Which fraction ligated does the source give for A36T A56C here?
A: 0.797

Q: How did the fraction ligated turn out when A36G G55T was run?
A: 0.809

Q: With A36G G55C as the variant, how does the fraction ligated read?
A: 0.773

Q: A36G G55A was tested. Which fraction ligated did it give?
A: 0.867

Q: How did the fraction ligated turn out when A36T G46T was run?
A: 0.791

Q: Which fraction ligated does the source give for A36T G46A here?
A: 0.818

Q: For A36T G46C, which fraction ligated is on record?
A: 0.787

Q: A37C G46C was tested. Which fraction ligated did it give?
A: 0.795

Q: How did the fraction ligated turn out when A37C G46A was run?
A: 0.78

Q: Which fraction ligated does the source give for A37C G46T here?
A: 0.785

Q: With A36T A39C as the variant, how does the fraction ligated read?
A: 0.821

Q: How did the fraction ligated turn out when A36T A39G was run?
A: 0.842

Q: How did the fraction ligated turn out when A36T A39T was run?
A: 0.836

Q: A36T G47C was tested. Which fraction ligated did it give?
A: 0.233

Q: For A36T G47A, which fraction ligated is on record?
A: 0.8

Q: For A36T G47T, which fraction ligated is on record?
A: 0.383

Q: How did the fraction ligated turn out when A36T A37G was run?
A: 0.842

Q: With A36T A37T as the variant, how does the fraction ligated read?
A: 0.851

Q: With A36T A37C as the variant, how does the fraction ligated read?
A: 0.838

Q: How did the fraction ligated turn out when A36T C42T was run?
A: 0.856

Q: For A36T C42A, which fraction ligated is on record?
A: 0.834

Q: With A36T C42G as the variant, how does the fraction ligated read?
A: 0.835

Q: Which fraction ligated does the source give for A36T A48T here?
A: 0.792

Q: Which fraction ligated does the source give for A36T A48C here?
A: 0.767

Q: How did the fraction ligated turn out when A36T A48G was run?
A: 0.781

Q: How did the fraction ligated turn out when A37C A48G was run?
A: 0.795

Q: For A37C A48C, which fraction ligated is on record?
A: 0.792

Q: A37C A48T was tested. Which fraction ligated did it give?
A: 0.775

Q: For A37C G50A, which fraction ligated is on record?
A: 0.616

Q: How did the fraction ligated turn out when A37C G50C was run?
A: 0.439

Q: Which fraction ligated does the source give for A37C G50T here?
A: 0.787

Q: Which fraction ligated does the source give for A36T C40T here?
A: 0.83

Q: How did the fraction ligated turn out when A36T C40G was run?
A: 0.824

Q: For A36T C40A, which fraction ligated is on record?
A: 0.823

Q: For A36T T45C, which fraction ligated is on record?
A: 0.783

Q: For A36T T45G, which fraction ligated is on record?
A: 0.385

Q: Which fraction ligated does the source give for A36T T45A here?
A: 0.778

Q: A37C was tested. Which fraction ligated did it give?
A: 0.849

Q: With A37G as the variant, how does the fraction ligated read?
A: 0.857

Q: With A37C A39T as the variant, how does the fraction ligated read?
A: 0.807

Q: For A37C A39C, which fraction ligated is on record?
A: 0.782

Q: A37C A39G was tested. Which fraction ligated did it give?
A: 0.833

Q: For A36G G38A, which fraction ligated is on record?
A: 0.828

Q: Which fraction ligated does the source give for A36G G38T here?
A: 0.806

Q: A36G G38C was tested. Which fraction ligated did it give?
A: 0.846

Q: Which fraction ligated does the source give for A36G T43C here?
A: 0.81

Q: With A36G T43G as the variant, how does the fraction ligated read?
A: 0.776

Q: With A36G T43A as the variant, how does the fraction ligated read?
A: 0.823

Q: How did the fraction ligated turn out when A37G A56G was run?
A: 0.818

Q: Which fraction ligated does the source give for A37G A56C here?
A: 0.802

Q: A37G A56T was tested. Which fraction ligated did it give?
A: 0.819

Q: With A36T T43C as the variant, how does the fraction ligated read?
A: 0.814

Q: Which fraction ligated does the source give for A36T T43A here?
A: 0.841

Q: With A36T T43G as the variant, how does the fraction ligated read?
A: 0.812

Q: Which fraction ligated does the source give for A36G A48G here?
A: 0.798

Q: A36G A48T was tested. Which fraction ligated did it give?
A: 0.0834

Q: How did the fraction ligated turn out when A36G A48C was run?
A: 0.773

Q: How did the fraction ligated turn out when A37C G55T was run?
A: 0.845

Q: For A37C G55A, which fraction ligated is on record?
A: 0.837

Q: Which fraction ligated does the source give for A37C G55C here?
A: 0.826

Q: For A37C G47A, which fraction ligated is on record?
A: 0.796

Q: With A37C G47T as the variant, how does the fraction ligated read?
A: 0.406

Q: For A37C G47C, which fraction ligated is on record?
A: 0.444

Q: A37C A56T was tested. Which fraction ligated did it give?
A: 0.804

Q: With A37C A56C as the variant, how does the fraction ligated read?
A: 0.818

Q: For A37C A56G, which fraction ligated is on record?
A: 0.784

Q: A36G G47T was tested. Which fraction ligated did it give?
A: 0.0714

Q: Which fraction ligated does the source give for A36G G47A here?
A: 0.764

Q: A36G G47C was tested. Which fraction ligated did it give?
A: 0.0195

Q: A36T A41G was tested. Which fraction ligated did it give?
A: 0.794

Q: Which fraction ligated does the source give for A36T A41T here?
A: 0.819

Q: How did the fraction ligated turn out when A36T A41C was run?
A: 0.774

Q: How did the fraction ligated turn out when A36G A41C was run?
A: 0.795

Q: Which fraction ligated does the source give for A36G A41G here?
A: 0.788

Q: How did the fraction ligated turn out when A36G A41T was run?
A: 0.834

Q: With A37G A48C as the variant, how does the fraction ligated read?
A: 0.763

Q: With A37G A48G as the variant, how does the fraction ligated read?
A: 0.795

Q: A37G A48T was tested. Which fraction ligated did it give?
A: 0.799

Q: How did the fraction ligated turn out when A37C C40T was run?
A: 0.858

Q: Which fraction ligated does the source give for A37C C40A here?
A: 0.82

Q: Which fraction ligated does the source give for A37C C40G here?
A: 0.809

Q: A37C T44C was tested. Which fraction ligated did it give?
A: 0.843

Q: How did the fraction ligated turn out when A37C T44A was run?
A: 0.84

Q: With A37C T44G as the variant, how does the fraction ligated read?
A: 0.859

Q: With A37C T45C as the variant, how does the fraction ligated read?
A: 0.778

Q: A37C T45G was tested. Which fraction ligated did it give?
A: 0.415

Q: With A37C T45A as the variant, how does the fraction ligated read?
A: 0.78

Q: A36G A57C was tested. Which fraction ligated did it give?
A: 0.863

Q: A36G A57G was tested. Which fraction ligated did it give?
A: 0.88

Q: How did the fraction ligated turn out when A36G A57T was run?
A: 0.878

Q: Which fraction ligated does the source give for A36T G55C here?
A: 0.817

Q: How did the fraction ligated turn out when A36T G55A was run?
A: 0.842

Q: Which fraction ligated does the source give for A36T G55T here?
A: 0.836

Q: For A37G A41G, which fraction ligated is on record?
A: 0.822

Q: A37G A41C was tested. Which fraction ligated did it give?
A: 0.787

Q: Which fraction ligated does the source give for A37G A41T here?
A: 0.859

Q: For A36T A57C, which fraction ligated is on record?
A: 0.823

Q: A36T A57T was tested. Which fraction ligated did it give?
A: 0.824

Q: A36T A57G was tested. Which fraction ligated did it give?
A: 0.841

Q: How did the fraction ligated turn out when A37G A39G was run?
A: 0.853

Q: A37G A39C was tested. Which fraction ligated did it give?
A: 0.776

Q: For A37G A39T, which fraction ligated is on record?
A: 0.796

Q: A36G T49G was tested. Which fraction ligated did it give?
A: 0.761

Q: How did the fraction ligated turn out when A36G T49C was run?
A: 0.4

Q: A36G T49A was tested. Which fraction ligated did it give?
A: 0.725

Q: For A36T T44A, which fraction ligated is on record?
A: 0.844

Q: Which fraction ligated does the source give for A36T T44G here?
A: 0.847

Q: For A36T T44C, which fraction ligated is on record?
A: 0.82

Q: With A36G G46C as the variant, how does the fraction ligated read?
A: 0.803

Q: With A36G G46A as the variant, how does the fraction ligated read?
A: 0.836

Q: A36G G46T was tested. Which fraction ligated did it give?
A: 0.825

Q: For A36G T44A, which fraction ligated is on record?
A: 0.848

Q: With A36G T44C as the variant, how does the fraction ligated read?
A: 0.85

Q: Which fraction ligated does the source give for A36G T44G here?
A: 0.856

Q: A36G G50T was tested. Which fraction ligated did it give?
A: 0.751

Q: Which fraction ligated does the source give for A36G G50C here?
A: 0.117

Q: A36G G50A was tested. Which fraction ligated did it give?
A: 0.41

Q: For A37C T43C, which fraction ligated is on record?
A: 0.817

Q: With A37C T43G as the variant, how does the fraction ligated read?
A: 0.806

Q: With A37C T43A as the variant, how does the fraction ligated read?
A: 0.832

Q: For A37C T49G, which fraction ligated is on record?
A: 0.797

Q: How did the fraction ligated turn out when A37C T49A was run?
A: 0.778

Q: A37C T49C was tested. Which fraction ligated did it give?
A: 0.737

Q: Which fraction ligated does the source give for A36G C42G here?
A: 0.844

Q: A36G C42T was tested. Which fraction ligated did it give?
A: 0.849

Q: For A36G C42A, which fraction ligated is on record?
A: 0.836

Q: Which fraction ligated does the source give for A36G A39T here?
A: 0.815

Q: How did the fraction ligated turn out when A36G A39G was run?
A: 0.862

Q: How did the fraction ligated turn out when A36G A39C was run?
A: 0.791
